Measurements as given in article PMC2173848 (The Journal of Cell Biology, 2002).

Molecular target: T1, GST-Sec34p (S. cerevisiae, UniProt P40094 1-801)
T1 sequence (looked up): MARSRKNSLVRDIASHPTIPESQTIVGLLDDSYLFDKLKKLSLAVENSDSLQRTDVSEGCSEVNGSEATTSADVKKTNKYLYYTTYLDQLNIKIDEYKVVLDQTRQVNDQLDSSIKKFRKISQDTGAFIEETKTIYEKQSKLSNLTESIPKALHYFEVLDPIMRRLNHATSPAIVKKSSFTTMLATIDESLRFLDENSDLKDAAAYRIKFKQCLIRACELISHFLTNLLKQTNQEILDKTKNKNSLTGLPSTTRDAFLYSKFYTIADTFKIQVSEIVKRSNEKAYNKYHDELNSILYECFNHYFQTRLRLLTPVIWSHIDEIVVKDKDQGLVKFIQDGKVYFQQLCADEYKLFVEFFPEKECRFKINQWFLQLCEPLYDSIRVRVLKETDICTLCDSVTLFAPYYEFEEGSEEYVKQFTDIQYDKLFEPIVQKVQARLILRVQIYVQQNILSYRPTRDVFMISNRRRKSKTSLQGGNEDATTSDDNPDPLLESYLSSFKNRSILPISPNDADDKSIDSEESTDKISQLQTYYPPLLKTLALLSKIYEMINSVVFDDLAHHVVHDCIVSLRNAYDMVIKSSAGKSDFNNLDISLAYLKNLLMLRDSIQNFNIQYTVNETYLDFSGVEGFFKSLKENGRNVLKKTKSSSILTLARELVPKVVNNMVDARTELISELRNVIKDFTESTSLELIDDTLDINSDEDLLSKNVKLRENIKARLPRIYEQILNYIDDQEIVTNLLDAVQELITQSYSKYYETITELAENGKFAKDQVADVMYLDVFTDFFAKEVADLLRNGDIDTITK
Assay: pull-down

B1: Sec35p (natural protein, S. cerevisiae (endogenous in yeast), UniProt P53271 1-262, looked up)
chain: MDFLNDDELDLDLPVTAEISKELFATEIEKYRESETNGTDVDNFDVDRFLVQKNFHYLPLDSLIRDLSGLSQKMVQTLLEQIRSNYDDYLTFSNTYTDEENETLINLEKTQSDLQKFMTQLDHLIKDDISNTQEIIKDVLEYLKKLDEIYGSLRNHSQLTEALSLGKRLSKSLHEMCGIEPLEEEICSGLIEQLYKLITASRRILESCADSNSPYIHHLRNDYQDLLQEFQISLKILTEKCLENPSSLQNLSLTLVSIIKTA
percent recovered on the beads: ~3%
